We go through one molecule from patent US12312417B2, “Binding proteins 1” (Nucleus Therapeutics Pty. Ltd., priority 2017, dated 2025).

Series [1] deals with BRCA2-deficient DLD1 colon cancer cells. The series can be described thus: Phospho-53BP1 foci accumulation. The series is classed as cell-based. Here is the method: (§1) A matched pair of BRCA2-proficient and deficient DLD1 colon cancer cells and PTEN-proficient and deficient U251 human glioma cells were treated with control media or media containing 10 μM di-scFv variant 13 (SEQ ID NO: 41), 5 nM olaparib, or combination treatment.

The test system of a further series is DLD1 colon cancer cells. The series can be described thus: Alkaline phosphatase-based survey of nuclear penetration. The series is classed as cell-based. Conditions: cells treated for one hour; right shift of histogram peak. Here is the method: DLD1 colon cancer cells were treated with control media or each of the indicated variants for one hour. Cells were then washed, fixed, blocked with 1% BSA-TBST, and then probed with protein L for one hour. Cells were then washed and incubated with an anti-protein L primary antibody for one hour. After another round of washing cells were incubated with an alkaline phosphatase-conjugated secondary antibody for one hour. Finally, cells were washed and signal was developed by addition of NBT/BCIP. Dark stain indicates location of the variants.
Raw integrated density values reflecting nuclear alkaline phosphatase staining in the DLD1 cells from the experiment in FIG. 3 were obtained by analysis using ImageJ Boxplots of distributions of values are presented for each variant in FIG. 4.
Histogram plots of cell counts versus nuclear staining intensity (represented as reciprocal intensity in arbitrary units) are shown in FIG. 5.

Series [2] deals with PTEN-deficient U87 human glioma cells. The experiment in a line: Cell viability by Trypan blue exclusion assay. The series is classed as cell-based. To be noted: 7 days after treatment; relative to control treated cells. The method, then: Cell viability of PTEN-deficient U87 human glioma cells was also assessed following treatment with control media or media containing Variants 10, 13, 15, or 16. Cell viability was determined 7 days after treatment using Trypan blue exclusion assay and by direct visualization of cell morphology by light microscopy.

The test system of series [3] is GBM cells extracted from human GBM tumours. The series can be described thus: Orthotopic mouse model of GBM. The series is classed as in vivo. Here is the method: An orthotopic mouse model of GBM was generated by intracranial injection of GBM cells extracted from human GBM tumours. Once the tumours developed in the brain, mice were treated by tail vein injection of control or di-scFv variant 13 (SEQ ID NO: 41), and effect of di-scFv on reduction of tumour volume was evaluated by extraction of tumours. […] To confirm this, tumours and normal brain were probed for di-scFv by protein L immunostaining.
Mean survival data reflected these trends (83 days±3.2 days for di-scFv treated mice, 71 days±1.2 days for controls) (FIG. 16E). Statistical analysis indicated a significant difference between the two groups, with P value=0.004.

For series [4], the system named is BRCA2-proficient DLD1 colon cancer cells. The series can be described thus: Cell viability by Trypan blue exclusion assay. The series is classed as cell-based. Conditions: 7 days later. Here is the method:
(§2) Next, a matched pair of BRCA2-proficient and deficient DLD1 colon cancer cells was treated with control media or media containing Variants 10, 13, 15, or 16. Cell viability was determined 7 days later by Trypan blue exclusion assay and by direct visualization of cell morphology by light microscopy. […] Representative light microscope images shown the changes in morphology in the BRCA2-deficient cancer cells treated with the variants are shown in FIG. 10, Panel A. Quantitative analysis of the cell survival by Trypan blue exclusion assay is shown in FIG. 10, Panel B.

Series [5] relates to BRCA2-deficient DLD1 colon cancer cells. The series can be described thus: Cell viability by Trypan blue exclusion assay. The series is classed as cell-based. To be noted: 7 days later. Here is the method:
as §2

The subject of series [6] is Primary human glioblastoma (GBM) cancer cells. The experiment in a line: Live cells by trypan blue staining in primary GBM explants. To be noted: seven patient explants; percentage of live cells by trypan blue. The series is classed as cell-based. Here is the method:
Primary human glioblastoma (GBM) cancer cells extracted from primary human GBM tumours from patients were treated with control or di-scFv (SEQ ID NO: 41), and percentage of live cells was evaluated by trypan blue staining.

Series [7] deals with HDR-proficient DLD1 cells. The series can be described thus: Cell death in HDR-proficient cells, di-scFv with PARP inhibitor. The series is classed as cell-based. To be noted: 5 nM olaparib, 10 μM di-scFv, or both. The method, then:
Homology-directed repair (HDR) deficient BRCA2-DLD1 cells and PTEN-U251 cells were treated with control, 5 nM olaparib, 10 μM di-scFv, or 10 μM di-scFv+5 nM olaparib. Surviving fraction was determined by colony formation assay.
It was then determined whether the combination of di-scFv and olaparib is simply universally cytotoxic, regardless of DNA repair status. To evaluate this possibility, HDR-proficient DLD1 cells were treated with the above regimen to confirm selectivity of combination therapy to HDR-deficient malignant cells.

In series [8] the test system is human GBM cancer stem cells (CSCs) grown as tumour spheres. The series can be described thus: GBM tumour sphere penetration and sphere volume. The series is classed as cell-based. Here is the method: GBM cancer stem cells extracted from primary human GBM tumours from patients and grown as spheres were treated with control or di-scFv (SEQ ID NO: 41), and the effect of dose and incubation time on reduction of sphere volume was evaluated by confocal micrographs of DX1-rhodamine cellular penetration into GBM cells. Tumour spheres are recognised as a useful tool for pre-clinical studies as they retain tumour heterogeneity and more closely represent the original patient tumour.

Series [9] has as its system PTEN-deficient U251 human glioma cells. The experiment in a line: Phospho-53BP1 foci accumulation (DNA damage). The series is classed as cell-based. Conditions: for mean number of phospho-53BP1 foci per cell: PTEN-deficient U251. The method, then: A matched pair of PTEN-proficient and deficient U251 human glioma cells were treated with control media or media containing Variant 10, 11, 13, 15, or 16 for twenty-four hours. Cells were then washed, fixed, blocked, and then probed with an anti-phospho-53BP1 antibody overnight. Cells were then washed and incubated with an AlexaFluor555-conjugated secondary antibody. Finally, cells were washed, counterstained with DAPI, and visualized under a fluorescence microscope. Images were saved and evaluated by CellProfiler to determine mean number of phospho-53BP1 foci per cell.
as §1

Another series relates to MCF-7 cells. The series can be described thus: Nuclear penetration by protein L immunostain of fixed cells. The series is classed as cell-based. Here is the method: (§3) DLD-1 and MCF-7 cells were treated with control or di-scFv (SEQ ID NO: 41), and nuclear penetration was evaluated by protein L immunostain of fixed cells.
The test system of the next series is DLD-1 cells. The description is as above. The series is classed as cell-based. The method, then:
as §3

B1: Variant 13: cell penetrating anti-DNA humanized di-scFv, SEQ ID NO: 41 (protein)
scFv: DIQMTQSPSSLSASLGDRATITCRASKTVSTSSYSYMHWYQQKPGQPPKLLIKYASYLESGVPSRFSGSGSGTDFTLTISSLQPEDAATYYCQHSREFPWTFGGGTKVEIKRADAAPGGGGSGGGGSGGGGSEVQLVESGGGLVQPGGSLRLSCAASGFTFSNYGMHWVRQAPGKGLEWVSYISSGSSTIYYADSVKGRFTISRDNAKNSLYLQMNSLRAEDTAVYYCARRGLLLDYWGQGTTVTVSSASTKGPSVFPLAPLESSGSDIQMTQSPSSLSASLGDRATITCRASKTVSTSSYSYMHWYQQKPGQPPKLLIKYASYLESGVPSRFSGSGSGTDFTLTISSLQPEDAATYYCQHSREFPWTFGGGTKVEIKRADAAPGGGGSGGGGSGGGGSEVQLVESGGGLVQPGGSLRLSCAASGFTFSNYGMHWVRQAPGKGLEWVSYISSGSSTIYYADSVKGRFTISRDNAKNSLYLQMNSLRAEDTAVYYCARRGLLLDYWGQGTTVTVSS
modifications: Variant 13
B1: the “mean number of phospho-53BP1 foci per cell” value in series [1] (BRCA2-deficient DLD1, 10 μM di-scFv, 5 nM olaparib) is reported as “increased the number of phospho-53BP1 foci”; in series [9] (10 μM di-scFv, 5 nM olaparib) it was “increased the number of phospho-53BP1 foci”; in series [9] (twenty-four hours, vs control media), “increased the number of foci”. The “percentage of P53BP1-positive cells” value in series [1] (HDR-deficient DLD1, 24 hour) is “increased”; in [9] (HDR-deficient U251, 24 hour) it was “increased”. Further, the “nuclear penetration relative to the yeast prototype (histogram of cell counts versus nuclear staining intensity)” value in the series on DLD1 colon cancer cells is “notable right shift and narrowing of distributions”. For the same molecule, the cell viability result in series [2] was “reductions in cell viability”. For the same molecule, the median survival in [3] (group of 7 mice) was found to be 87 days. Also, the “median survival longer than controls” value in series [3] (group of 7 mice, controls median 72 days) is “more than 20%”. For the same molecule, the “crossing of the blood brain barrier” value in series [3] (mouse, in vivo) is “successfully crossed the blood brain barrier”. Also, the “di-scFv in GBM tumour cells by protein L immunostaining” value in series [3] (mouse, in vivo) is “detected in the nuclei of GBM tumour cells”. Further, the “di-scFv in adjacent normal brain cells by protein L immunostaining” value in series [3] (mouse, in vivo) is on record as “not evident”. In series [3] (survival study mice), the “toxicity or weight loss” value is on record as “No toxicity or weight loss”. The “TUNEL staining (incidence of apoptosis in tumours)” value in series [3] (tail vein injection) is “increased incidence of apoptosis”. Also, in series [3] (tail vein injection, brain sections), the “glioblastoma tumour size smaller than in control mice” value is listed as “more than 40%”. In addition, the “cell viability / toxicity” value in [4] is “not toxic”; in [5] it was “killed by the variants”. For the same molecule, in [6], the “glioblastoma tumour explants showing significant cancer cell death” value was “Five of the seven”. Also, the cell death entry in series [7] was “No effect on cell death”. Besides, the “cellular penetration in GBM spheres” value in [8] (confocal micrographs, DX1-rhodamine) is “demonstrated cellular penetration in GBM spheres”. In addition, the sphere volume result in series [8] (effect of dose and incubation time) was “reduced sphere volume in dose-dependent and time-dependant manner”. The nuclear penetration result in the series on MCF-7 cells and in the series on DLD-1 cells was “successfully penetrated” each time.
